From the nanobody polyreactivity screen of Harvey et al. (2022)

Assay: yeast display, Sf9 membrane polyspecificity reagent, FACS + sequencing; frameworks hold sequencing errors
Summary of the method: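 Nanobodies from a synthetic yeast display library (Saccharomyces cerevisiae BJ5465), induced 36–48 hours with galactose, were stained 1 hour at 4 °C with 10% biotinylated, detergent-solubilized Sf9 membrane reagent, enriched on streptavidin microbeads, then FACS-sorted. Anti-HA (expression) and streptavidin (reagent binding) fluorescence set low and high (top ~1%) gates. Polyreactivity labels come from the gate of origin. Genes were colony-PCR amplified, MiSeq 2 × 250 sequenced and filtered by CDR length.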

Row | Sequence | polyreactivity (PSR sort gate)
1 | QVQLVESGGGLLQAGGSHRLSCAASGILVYNAMGWYTQAPGKERELVAAISARGGRTYYADSVKGRFTISRDNAKNTVYLQMNSLKPEDSAVYYCATLETTGVNYWGQGTQVTVSS | high polyreactivity
2 | QVQLVESGGGLLQAGGSLRISCAASGRTLFVYDMGWYRQAPGKERDLVAAITGDGSTNYADSVKGRFTISRDNAKNTVYLQMNSLKPEDPAVYYCNAGDRIGFWNTVEYNYWGQGTQVTVSS | low polyreactivity
3 | QVQLVESGGGLLQAGGSLRLICAASGFIFVTYAMGLYRQEPGKERELVAAITNSGGTTYYADSVKGRFTISRDNAKNTVYLQMNSLKPEDTAGYYCNKPYGAETAHREFDYWGQGTQVTVSS | low polyreactivity
4 | QVQLVESGGGLLQAGGSLRLICAASGITFRYYTMGWYRQAPVKETELVAAITWSGSSTYYADSVKGRFTISRDNAKNTVYLQMNSLKPEDTAVYYCAKPYHQRSAKVDYWGQGTQVTVSS | low polyreactivity
5 | QVQLVESGGGLLQAGGSLRLSCAASGFILNAYTMGWYRQAPGKERELVATITINGGSTYYADSVKGRFTISRDNAKNTVYLQMNSLKPEDTAVYYCNADYWYKYDYWGQGTQVTVSS | low polyreactivity
6 | QVQLVESGGGLLQAGGSLRLSCAASGFTFRYYAMGWYRQAPGKERELVAAISRSGGSTYYADSVKGRFTISRDNAKNTVYLQMNSLKPEDTAVYYCAADDRYGSRYYYWGQGTQVTVTS | high polyreactivity
7 | QVQLVESGGGLLQAGGSLRLSCAASGGTFSLNVMGWYRQAPGKEREFVATITYSGGSTYYADSVKGRFTISRDNAKNTVYLQMKSLKPEDTAVYYCAASFTYSQVTEPYGYWGQGSQVTVSS | low polyreactivity
8 | QVQLVESGGGLLQAGGSLRLSCAASGHIFRGYTMGWYRPAPGKERELVATITWNGVSTFYADSVKGRFTISRDTAKNTVYLQMNSLKPEDTSVYYCAAYYASHDYSGFWSDTYEYWGQGTQVTVSS | low polyreactivity
9 | QVQLVESGGGLLQAGGSLRLSCAASGITFDGNAMGWYRQAPWKERELVAGISGSGGGTYYADSVKGRFTISRDNAKNTVYLQMNSLKPEDTEVYYCAADTSTSHAYDYWGQGTQVTVSS | low polyreactivity
10 | QVQLVESGGGLLQAGGSLRLSCAASGLIFRSYAMGWYRQAPGKERDLVAAITDLFWSTYYADSVKGRFTISRDNAKNTVYLQMNSLKPEDTAVYYCARDDWVYTNVEMDYWGQGTQVTVSS | high polyreactivity
11 | QVQLVESGGGLLQAGGSLRLSCAASGLIFVVNDMGCYTQAPGKERELVAAISYSGSSTYGDSVKGRFTISRDNAKNTVYLQMNSMNPEDTAVYYCARGSTVRTRGVGYWGQGTLVTVSS | low polyreactivity
12 | QVQLVESGGGLLQAGGSLRLSCAASGLTFAFYVMGWYRQAPGKERELVAAISASGASTYYADSVKGRFTISRDNAKNTVYLQMNSLKPEDTAVYYCAADYAVYSFTEFNYWGQGTQVTVSS | high polyreactivity
13 | QVQLVESGGGLLQAGGSLRLSCAASGLTFSKNAMGWYRQATGKERELVATISYSSSRTNYADSVKGRFTISRDNAMNTVYLQMNFLKPEDTAVYYCAARVYKGWPTHYDYWGQGTQVTVSS | high polyreactivity
14 | QVQLVESGGGLLQAGGSLRLSCAASGRIFGWYAMGWYRQAPGKERELVAAISRGGTRTNYADSVKGRFTISRDNSKNTVYLQMNSLKPEDTAVYYCAAGGSWCQNGYWGQGTQVTVSS | high polyreactivity
15 | QVQLVESGGGLLQAGGSLRLSCAASGRIFSIYAMGWYRPAPGKEREMVAAIRRGGSTSYADSVKGRFTISRDNAKNTVYLLMNSLKPEDTAVYYCAARLRYLGYDYWGQGTQVTVSS | high polyreactivity
16 | QVQLVESGGGLLQAGGSLRLSCAASGRIFYYYAMGWYRQAPGKEREFVARNRSSGGSTYADSVKGRFTISRDNAKNTVYLQMNSLKPEDTAVYYCARDGYTAVEYDYWGQGTQVTVSS | low polyreactivity

Row | Sequence | polyreactivity (PSR sort gate)
17 | QVQLVESGGGLLQAGGSLRLSCAASGRNFTHNAMGWYRQAPRKERELVAAITSGGRTTYADSVKGRFTISRDNAKNTVYLQMNSLKPEDSAVYYCNADTGLGSLDFDKRDYWGQGTQVTVSS | low polyreactivity
18 | QVQLVESGGGLLQAGGSLRLSCAASGRTYYTNAMGWYRQAPGKERELVAAISRGGGRTYYADSVKGRFTISRDNAMNSVYLQMNSLKPEDTAVYYCAASPYQGQGREYYYWGQGTQVTESS | high polyreactivity
19 | QVQLVESGGGLLQAGGSLRLSCAASGSIFESYAMGWYRQAPGKERELVAAITSSGDSTYYADSVKGRFTISRDNAKNTVYLQMNSLKPEDTAVYYCAKRVPTYISTAEWGSRYDYWGQGTQVTVSS | low polyreactivity
20 | QVQLVESGGGLLQAGGSLRLSCAASGSILDGNAMGWNRQAPGKERELVAAISYSGGSTYYADSVKGRFTISRDNAKNTVYLQIYSLKPEDTAVYYCAAGSISTPGRGVDKPDAYVYWGQGTQVTVSS | low polyreactivity
21 | QVQLVESGGGLLQAGGSLRLSCAASGSILGPYAMGWYRQAPGKERELVAGIDATDGSTYYADSVKGRFTISRDNAKNTVYLQMNSLKPEDTAVYYCAAAPYAYYGEYNYWGQGTQVTVSS | low polyreactivity
22 | QVQLVESGGGLLQAGGSLRLSCAASGSLFGGYAMAWYRQAPGKEREFGAAISGRGASTYYADSVKGRFTISRDNAKTTVYLQMNSLKPEDTAVYDCNARADGRIDGHSATYGYWGQGTQVTVSS | high polyreactivity
23 | QVQLVESGGGLLQAGGSLRLSCAASGSTFEYNAMGWYRQAPGKERELVASSTNYADSVKGRFTISRDNAKNTVYLQMNSLKPEDTAVYYCAREQGVNRNHDNWGQGTQVTVSS | low polyreactivity
24 | QVQLVESGGGLLQAGGSLRLSCAASGSTFGYYAMGWYRQAPGKERELVAAITRSGTNTYYADSVKGRFTISRDNAKNTVYLQMNSLKPEDTAVYYCNAVSRRRSDYWGQGTQVTVSS | high polyreactivity
25 | QVQLVESGGGLLQAGGSLRLSCAASGSTFVYYAMGWYRQAPGKERELVAAISRSGGNTYYADSVKGRITISRDNAKNTVYLQRNSLKPEDTAVYYSAARSYGVQYYYWGQGTKVTVSS | high polyreactivity
26 | QVQLVESGGGLLQAGGSLRLSCPASGRIFDPYTMGSYRQAPGKERELVARITRRGGRTYYADSVKGRFTISRDNAKNTVYLQMNSLKPEDTAVYYCNADFSYRYYGAYDDWGQGTQVTVSS | high polyreactivity
27 | QVQLVESGGGLLQAGGSLRLSSAASVRIFPSYAMGWYRQARGKEREFVAAITRGGASTYYADSVKGRFTISRDNAKNTVYFEMNSLKPEVTAVYYCAKDAYRYGGFSWTTGMDYWGQGTQVTVSA | high polyreactivity
28 | QVQLVESGGGLLQAGGSRRIRCAASGRIFWVYAMGWYRKAPGKERELVAAISSTGDGTYYADSVKVRFTISRDNAKNSVYLEMNSLKPDDTAVYYCAADFRVARSPLSGGSDFWGQGTQVTVSS | low polyreactivity
29 | QVQLVESGGGLLQAGVSLRLSCASSGRIIDRNAMGWYRQAPGKERELVAAISSSGSTNYADSVKGRFTISRDNAKNTVYLQMNSLKPEDTAVYYCDARWRSVLAAGTRPVSFDYWGQGTQVTVSS | low polyreactivity
30 | QVQLVESGGGLVEAGGSLRISCAASGFIFGPYAMGWYRQAPGKERELVAASWRGGSTYYADSVKGRFTISRDNAKNTVYLQMNSLKPEDTAVYYCAADVIYSLYYYWGQGTQVTVSS | low polyreactivity
31 | QVQLVESGGGLVEAGGSLRISCAASGYIFLRNAMGWYRQAPGKERELVAAIRRTGGSTYYADSVKGRFTISRDNAKNSVYVQMNSLKPEASAVYYCAKRSYTGYEYWGQGNQVTVSS | low polyreactivity
32 | QVQLVESGGGLVEAGGSLRLSCAASGAIFQYAMGWYRQAPGKERELVAGITYRGSTYYADSVKGRFTISRDNAKNTVYLQMNSMKPEDTAVYDCAALQRGFGYRPRRWSYDYWGQGTQVTVSS | high polyreactivity
